T1: human L3MBTL3 fragment 1–523 (human, UniProt Q96JM7-2 1-523)
T1 sequence (looked up): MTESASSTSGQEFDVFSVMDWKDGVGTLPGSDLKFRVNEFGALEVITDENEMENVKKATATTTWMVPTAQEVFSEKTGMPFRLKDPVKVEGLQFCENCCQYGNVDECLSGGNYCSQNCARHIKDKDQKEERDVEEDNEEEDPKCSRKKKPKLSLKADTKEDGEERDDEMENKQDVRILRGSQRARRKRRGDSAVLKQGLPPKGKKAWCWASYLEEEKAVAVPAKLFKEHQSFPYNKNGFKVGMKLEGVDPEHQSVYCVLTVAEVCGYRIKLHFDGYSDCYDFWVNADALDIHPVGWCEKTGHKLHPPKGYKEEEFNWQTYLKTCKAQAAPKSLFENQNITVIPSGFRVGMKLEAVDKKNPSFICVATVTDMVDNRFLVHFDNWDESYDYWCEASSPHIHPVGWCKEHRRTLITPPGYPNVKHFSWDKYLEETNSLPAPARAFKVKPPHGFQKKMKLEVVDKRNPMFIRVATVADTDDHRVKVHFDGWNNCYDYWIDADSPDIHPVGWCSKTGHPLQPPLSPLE


Columns and labels:
Experiment in all cases: ITC
[1] = target: T1, human L3MBTL3 fragment 1–523
RBPJ (53–474) K275M = RBPJ (53–474) K275M (Mus musculus, UniProt P31266 53-474, K275M)
RBPJ (53–474) K275M, sequence (P31266 53-474 K275M): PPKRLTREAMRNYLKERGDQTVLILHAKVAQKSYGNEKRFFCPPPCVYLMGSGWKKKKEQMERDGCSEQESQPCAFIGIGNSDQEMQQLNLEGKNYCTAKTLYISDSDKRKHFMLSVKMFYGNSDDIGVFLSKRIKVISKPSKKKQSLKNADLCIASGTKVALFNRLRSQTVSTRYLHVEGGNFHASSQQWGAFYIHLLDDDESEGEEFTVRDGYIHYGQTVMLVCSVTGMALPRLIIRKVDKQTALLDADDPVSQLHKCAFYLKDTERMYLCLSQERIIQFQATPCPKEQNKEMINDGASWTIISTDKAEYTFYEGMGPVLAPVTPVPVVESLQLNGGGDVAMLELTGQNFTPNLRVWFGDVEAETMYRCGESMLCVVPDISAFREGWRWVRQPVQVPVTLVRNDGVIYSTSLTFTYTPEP

RBPJ (53–474) Q333A = RBPJ (53–474) Q333A (Mus musculus, UniProt P31266 53-474, Q333A)
RBPJ (53–474) Q333A, sequence (P31266 53-474 Q333A): as the sequence (P31266 53-474 K275M) above, with M223K, Q281A counted along it

RBPJ (53–474) E260A [2] = target: T2, RBPJ (53–474) E260A (Mus musculus, UniProt P31266 53-474, E260A)
T2 sequence (P31266 53-474 E260A): as the sequence (P31266 53-474 K275M) above, with E208A, M223K counted along it

RBPJ (53–474) V263A = RBPJ (53–474) V263A (Mus musculus, UniProt P31266 53-474, V263A)
RBPJ (53–474) V263A, sequence (P31266 53-474 V263A): as the sequence (P31266 53-474 K275M) above, with V211A, M223K counted along it

RBPJ (53–474) E260K = RBPJ (53–474) E260K (Mus musculus, UniProt P31266 53-474, E260K)
RBPJ (53–474) E260K, sequence (P31266 53-474 E260K): as the sequence (P31266 53-474 K275M) above, with E208K, M223K counted along it

RBPJ (53–474) E260A [3] = target: T2, RBPJ (53–474) E260A; remark: listed apart in the source

Ka [1] [M⁻¹]	Kd [1] [nM]	Ka (RBPJ (53–474) K275M) [M⁻¹]	Kd (RBPJ (53–474) K275M) [nM]	dH (RBPJ (53–474) K275M) [kcal/mol]	Ka (RBPJ (53–474) Q333A) [M⁻¹]	Kd (RBPJ (53–474) Q333A) [nM]	dH (RBPJ (53–474) Q333A) [kcal/mol]	Ka (RBPJ (53–474) E260A [2]) [M⁻¹]	dH (RBPJ (53–474) E260A [2]) [kcal/mol]	Ka (RBPJ (53–474) V263A) [M⁻¹]	Kd (RBPJ (53–474) V263A) [nM]	dH (RBPJ (53–474) V263A) [kcal/mol]	Ka (RBPJ (53–474) E260K) [M⁻¹]	dH (RBPJ (53–474) E260K) [kcal/mol]	Kd (RBPJ (53–474) E260A [3]) [nM]	Binder
540000	1900															Mus musculus CSL (RBPJ), residues 53–474 (structural core domain), wild type, as used for ITC (domain or fragment) not shown
		240000	4200	-13.7	760000	1300	-10.6	260000	-13.6	330000	3000	-10.3	220000	-16.8	3730	MENVKKATATTTWMVPTAQ (peptide, UniProt Q96JM7-2 52-70, looked up) [L3MBTL3 (52–70) wild-type peptide (19-mer)]

From PMC9825171 (Nucleic Acids Research, 2022)
